Test results published in article PMC5769602, “Functional assays for the assessment of the pathogenicity of variants of GOSR2, an ER-to-Golgi SNARE involved in progressive myoclonus epilepsies” (Disease Models & Mechanisms, 2017).

T1: Bet1 1-118 (yeast, UniProt P22804 1-118)
T1 construct: Bet1, yeast ER-to-Golgi Qc-SNARE, residues 1-118 (not only the SNARE domain); also called Qc-SNARE; source: E. coli BL21 (DE3), purified (Ni2+-NTA, ion exchange)
T1 sequence (looked up): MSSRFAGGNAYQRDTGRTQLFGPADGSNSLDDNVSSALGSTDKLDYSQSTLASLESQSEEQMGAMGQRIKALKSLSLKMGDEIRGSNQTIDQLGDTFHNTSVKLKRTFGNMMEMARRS

T2: Sed5 211-320 (SNARE domain) (yeast, UniProt Q01590 211-320)
T2 construct: Sed5, yeast ER-to-Golgi Qa-SNARE, SNARE domain, residues 211-320; also called Qa-SNARE; source: E. coli BL21 (DE3), purified (Ni2+-NTA, ion exchange)
T2 sequence (looked up): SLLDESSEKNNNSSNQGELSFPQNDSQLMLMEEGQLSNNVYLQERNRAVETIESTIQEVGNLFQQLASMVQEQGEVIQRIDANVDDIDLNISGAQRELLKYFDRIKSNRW


What was measured:
Bet1 1-118 [1] = target: T1, Bet1 1-118; assay: fluorescence polarisation; fluorescence anisotropy over time; 500 nM OG-labelled Sec22 126-186 C131OG mixed with 2.7 uM Sed5 211-320, Bet1 1-118 and Bos1 151-221 or its mutants; PBS, 25°C; settings: both partners purified
[2] = target: the molecule itself; assay: SEC; individual purified SNARE domains of the Bos1 variants (oligomeric state of single proteins); Superdex 75, PBS with 200 mM NaCl
[3] = target: T2, Sed5 211-320 (SNARE domain); assay: SEC; quaternary SNARE complexes assembled from equal amounts of purified Sed5 (211-320), Bet1 (1-118), Sec22 (126-186) and one Bos1 (151-221) variant, incubated overnight; Superdex 75, PBS with 200 mM NaCl; settings: both partners purified
Bet1 1-118 [4] = target: T1, Bet1 1-118; assay: as above; settings: both partners purified
[5] = target: T2, Sed5 211-320 (SNARE domain); assay: fluorescence polarisation; fluorescence anisotropy over time; 500 nM OG-labelled Sec22 126-186 C131OG mixed with 2.7 uM Sed5 211-320, Bet1 1-118 and Bos1 151-221 or its mutants; PBS, 25°C; settings: both partners purified

Binder	binding result (Bet1 1-118 [1])	binding result [3]	binding result (Bet1 1-118 [4])	binding result [5]	binding result [2]
Bos1 151-221 wild type (SNARE domain) (domain or fragment, Saccharomyces cerevisiae, UniProt P25385 151-221, looked up, Bos1, Saccharomyces cerevisiae, SNARE domain, residues 151-221; Forms homo-oligomers of unstated size as the isolated SNARE domain; also called Bos1 wt; wild-type Bos1; source: E. coli BL21 (DE3), purified (Ni2+-NTA, ion exchange)) LYQGLQKEQSVFERGNAQLDYILEMGQQSFENIVEQNKILSKVQDRMSNGLRTLGVSEQTITSINKRVFKD	binds	binds	–	–	binds
Bos1 151-221 p.Gly176Asp (domain or fragment, Saccharomyces cerevisiae, UniProt P25385 151-221, looked up, Bos1, Saccharomyces cerevisiae, SNARE domain, residues 151-221, with the designed Gly176Asp mutation; also called Bos1 p.Gly176Asp; source: E. coli BL21 (DE3), purified (Ni2+-NTA, ion exchange)) LYQGLQKEQSVFERGNAQLDYILEMDQQSFENIVEQNKILSKVQDRMSNGLRTLGVSEQTITSINKRVFKD	–	binds	binds	–	binds

Second part, led by results:

binding result (Bet1 1-118 [1])	binding result [3]	binding result (Bet1 1-118 [4])	binding result [5]	Binder	binding result [2]
binds	–	–	binds	Bos1 151-221 p.Gly176Trp (domain or fragment, Saccharomyces cerevisiae, UniProt P25385 151-221, looked up, Bos1, Saccharomyces cerevisiae, SNARE domain, residues 151-221, with Gly176Trp (orthologous to GOSR2 p.Gly144Trp); also called Bos1 p.Gly176Trp; source: E. coli BL21 (DE3), purified (Ni2+-NTA, ion exchange)) LYQGLQKEQSVFERGNAQLDYILEMWQQSFENIVEQNKILSKVQDRMSNGLRTLGVSEQTITSINKRVFKD	–
–	binds	binds	–	Bos1 151-221 p.Arg196del (domain or fragment, Saccharomyces cerevisiae, UniProt P25385 151-221, looked up, Bos1, Saccharomyces cerevisiae, SNARE domain, residues 151-221, with arginine 196 deleted (orthologous to GOSR2 p.Lys164del); also called Bos1 p.Arg196del; source: E. coli BL21 (DE3), purified (Ni2+-NTA, ion exchange)) LYQGLQKEQSVFERGNAQLDYILEMGQQSFENIVEQNKILSKVQDMSNGLRTLGVSEQTITSINKRVFKD	binds
